Results from patent US20110130836A1, “Compositions and Methods for Use of Scar Tissue in Repair of Weight Bearing Surfaces” (LANX, INC., priority 2008, published 2011).

Target: T1, BMP-2 (Homo sapiens, UniProt P12643)
T1 sequence (P12643 283-396): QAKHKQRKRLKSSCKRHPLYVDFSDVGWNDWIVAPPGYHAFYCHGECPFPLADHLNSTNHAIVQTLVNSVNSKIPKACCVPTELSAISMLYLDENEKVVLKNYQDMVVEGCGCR
Assay: Inhibition of BMP-2 effects by SPP-24
Details: 50-fold (w/w) excess of SPP-24
From the text: Lyophilized SPP-24 is ground into a fine powder and combined with DBM. […] However, concentrations of growth factors in DBM vary by lot and preparation methodology. For example, Wildemann et al. reports BMP-2 concentrations of 0.004 g BMP-2 per gram total protein. Wildemann et al. (2007) Quantification of various growth factors in different demineralized bone matrix preparations. J. of Biomed. Mat. Res. Part A. 81A(2): 437-442. Thus, SPP to DBM ratios range from about 1:10 to about 2:1, for example, about 1:10, about 1:8, about 1:7, about 1:6, about 1:5, about 1:4, about 1:3, about 1:2, about 1:1, and about 2:1.

B1: secreted phosphoprotein 24 (protein, UniProt Q13103 30-211, looked up)
Secreted phosphoprotein 24: FPVYDYDPSSLRDALSASVVKVNSQSLSPYLFRAFRSSLKRVEVLDENNLVMNLEFSIRETTCRKDSGEDPATCAFQRDYYVSTAVCRSTVKVSAQQVQGVHARCSWSSSTSESYSSEEMIFGDMLGSHKWRNNYLFGLISDESISEQFYDRSLGIMRRVLPPGNRRYPNHRHRARINTDFE
notes: BMP-2 antagonist
effects of BMP-2: completely ablates
